For 19 molecules, Kd results are on record in patent publication US20200347130A1 (JIANGSU HENGRUI MEDICINE, published 2020).

T1: CD96 extracellular region with His tag (CD96-His) (human, UniProt P40200 22-519)
T1 construct: also called CD96-ECD-His; Bio-CD96-His (biotin-labelled form)
T1 sequence: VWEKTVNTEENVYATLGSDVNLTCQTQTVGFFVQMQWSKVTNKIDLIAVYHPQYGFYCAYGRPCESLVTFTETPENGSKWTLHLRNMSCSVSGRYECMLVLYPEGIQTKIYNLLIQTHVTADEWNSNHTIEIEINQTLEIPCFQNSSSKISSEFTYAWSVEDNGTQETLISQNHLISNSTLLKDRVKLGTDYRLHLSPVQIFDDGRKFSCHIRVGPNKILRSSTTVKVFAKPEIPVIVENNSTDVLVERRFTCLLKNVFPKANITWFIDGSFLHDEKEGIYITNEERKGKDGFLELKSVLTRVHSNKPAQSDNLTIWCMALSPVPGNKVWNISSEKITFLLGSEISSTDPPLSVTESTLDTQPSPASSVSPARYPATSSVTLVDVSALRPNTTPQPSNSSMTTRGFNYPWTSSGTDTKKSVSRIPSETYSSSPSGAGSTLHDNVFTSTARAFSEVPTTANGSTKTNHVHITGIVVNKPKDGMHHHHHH

B1: h1722-007 (antibody, V domains shown)
VH: EVQLVQSGAEVKKPGSSVKVSCKASGGTFSDYWMHWVKQAPGQGLEWIGMLHPNSGTTSFNEKFKIRVTITIDKSTSTAYMELSSLRSEDTAVYYCASDYSGPFAYWGQGTLVTVSS
VL: DIQMTQSPSSLSASVGDRVTITCSASSSVNYIHWYQQKPGKAPKRWIYDTSKLASGVPSRFSGSGSGTDFTLTISSLQPEDFATYYCQQWRSNPLTFGQGTKLEIK
notes: Only variable regions are tied to this name
B2: h1718-007 (antibody, V domains shown)
VH: EVQLVQSGAEVKKPGASVKVSCKASGYTITDYNMNWVRQAPGQRLEWIGVINPSYGITDYNQNFKDRVTITVDTSASTAYMELSSLRSEDTAVYYCAIQLRLPGYFDVWGQGTTVTVSS
VL: DIQMTQSPSSLSASVGDRVTITCKASQDINNYLNWFQQKPGKAPKTLIYRANRLVDGVPSRFSGSGSGQDYTLTISSLQPEDFATYYCLKYDEFPYTFGGGTKVEIK
notes: as for B1
B3: h1718-008 (antibody, V domains shown)
VH: EVQLVQSGAEVKKPGASVKVSCKASGYTITDYNMNWVKQAPGQRLEWIGVINPSYGITDYNQNFKDKVTITVDTSASTAYMELSSLRSEDTAVYYCAIQLRLPGYFDVWGQGTTVTVSS
VL: DIQMTQSPSSLSASVGDRVTITCKASQDINNYLNWFQQKPGKAPKTLIYRANRLVDGVPSRFSGSGSGQDYTLTISSLQPEDFATYYCLKYDEFPYTFGGGTKVEIK
notes: as for B1
B4: h1718-013 (antibody, V domains shown)
VH: EVQLVQSGAEVKKPGASVKVSCKASGYTITDYNMNWVRQAPGQRLEWIGVINPSYGITDYNQNFKDRVTITVDTSASTAYMELSSLRSEDTAVYYCAIQLRLPGYFDVWGQGTTVTVSS
VL: DIQMTQSPSSLSASVGDRVTITCKASQDINTYLNWFQQKPGKAPKTLIYRANRLVDGVPSRFSGSGSGQDYTLTISSLQPEDFATYYCLKYDEFPYTFGGGTKVEIK
notes: as for B1
B5: h1718-020 (antibody, V domains shown)
VH: EVQLVQSGAEVKKPGASVKVSCKASGYTITDYNMNWVKQAPGQRLEWIGVINPSYGITDYNQNFKDKVTITVDTSASTAYMELSSLRSEDTAVYYCAIQLRLPGYFDVWGQGTTVTVSS
VL: DIQMTQSPSSLSASVGDRVTITCKASQDINLYLNWFQQKPGKAPKTLIYRANRLVDGVPSRFSGSGSGQDYTLTISSLQPEDFATYYCLKYDEFPYTFGGGTKVEIK
notes: as for B1
B6: h1718-018 (antibody, V domains shown)
VH: EVQLVQSGAEVKKPGASVKVSCKASGYTITDYNMNWVKQAPGQRLEWIGVINPSYGITDYNQNFKDKVTITVDTSASTAYMELSSLRSEDTAVYYCAIQLRLPGYFDVWGQGTTVTVSS
VL: DIQMTQSPSSLSASVGDRVTITCKASQDINQYLNWFQQKPGKAPKTLIYRANRLVDGVPSRFSGSGSGQDYTLTISSLQPEDFATYYCLKYDEFPYTFGGGTKVEIK
notes: as for B1
B7: h1718-019 (antibody, V domains shown)
VH: EVQLVQSGAEVKKPGASVKVSCKASGYTITDYNMNWVKQAPGQRLEWIGVINPSYGITDYNQNFKDKVTITVDTSASTAYMELSSLRSEDTAVYYCAIQLRLPGYFDVWGQGTTVTVSS
VL: DIQMTQSPSSLSASVGDRVTITCKASQDINTYLNWFQQKPGKAPKTLIYRANRLVDGVPSRFSGSGSGQDYTLTISSLQPEDFATYYCLKYDEFPYTFGGGTKVEIK
notes: as for B1
B8: h1718-014 (antibody, V domains shown)
VH: EVQLVQSGAEVKKPGASVKVSCKASGYTITDYNMNWVRQAPGQRLEWIGVINPSYGITDYNQNFKDRVTITVDTSASTAYMELSSLRSEDTAVYYCAIQLRLPGYFDVWGQGTTVTVSS
VL: DIQMTQSPSSLSASVGDRVTITCKASQDINLYLNWFQQKPGKAPKTLIYRANRLVDGVPSRFSGSGSGQDYTLTISSLQPEDFATYYCLKYDEFPYTFGGGTKVEIK
notes: as for B1
B9: h1721-007 (antibody, V domains shown)
VH: EVTLKESGPVLVKPTETLTLTCTVSGFSLSSYGVNWIRQPPGKALEWLGVIWGDGSTNYHSALISRLTISKDTSKSQVVLTLTNMDPVDTATYYCAKNYFYGSRYGYAMDSWGQGTTVTVSS
VL: DIQMTQSPSSLSASVGDRVTITCRASENIYSSLAWYQQKPGKAPKLLVYNAKTLIEGVPSRFSGSGSGTDYTLTISSLQPEDFATYYCQHHYGTPYTFGGGTKVEIK
notes: as for B1
B10: h1721-008 (antibody, V domains shown)
VH: EVTLKESGPVLVKPTETLTLTCTVSGFSLSSYGVNWVRQPPGKGLEWLGVIWGDGSTNYHSALISRLTISKDTSKSQVVLTLTNMDPVDTATYYCAKNYFYGSRYGYAMDSWGQGTTVTVSS
VL: DIQMTQSPSSLSASVGDRVTITCRASENIYSSLAWYQQKPGKAPKLLVYNAKTLIEGVPSRFSGSGSGTDYTLTISSLQPEDFATYYCQHHYGTPYTFGGGTKVEIK
notes: as for B1
B11: h1721-002 (antibody, V domains shown)
VH: EVTLKESGPVLVKPTETLTLTCTVSGFSLSSYGVNWIRQPPGKALEWLGVIWGDGSTNYHSALISRLTISKDTSKSQVVLTMTNMDPVDTATYYCAKNYFYGSRYGYAMDSWGQGTTVTVSS
VL: DIQMTQSPSSLSASVGDRVTITCRASENIYSSLAWYQQKPGKAPKLLIYNAKTLIEGVPSRFSGSGSGTDFTLTISSLQPEDFATYYCQHHYGTPYTFGGGTKVEIK
notes: as for B1
B12: h1721-001 (antibody, V domains shown)
VH: EVTLKESGPVLVKPTETLTLTCTVSGFSLSSYGVNWIRQPPGKALEWLAVIWGDGSTNYHSALISRLTISKDTSKSQVVLTMTNMDPVDTATYYCARNYFYGSRYGYAMDSWGQGTTVTVSS
VL: DIQMTQSPSSLSASVGDRVTITCRASENIYSSLAWYQQKPGKAPKLLIYNAKTLIEGVPSRFSGSGSGTDFTLTISSLQPEDFATYYCQHHYGTPYTFGGGTKVEIK
notes: as for B1
B13: h1721-005 (antibody, V domains shown)
VH: EVTLKESGPVLVKPTETLTLTCTVSGFSLSSYGVNWIRQPPGKALEWLAVIWGDGSTNYHSALISRLTISKDTSKSQVVLTMTNMDPVDTATYYCARNYFYGSRYGYAMDSWGQGTTVTVSS
VL: DIQMTQSPSSLSASVGDRVTITCRASENIYSSLAWYQQKPGKAPKLLVYNAKTLIEGVPSRFSGSGSGTDYTLTISSLQPEDFATYYCQHHYGTPYTFGGGTKVEIK
notes: as for B1
B14: h1721-012 (antibody, V domains shown)
VH: EVTLKESGPVLVKPTETLTLTCTVSGFSLSSYGVNWVRQPPGKGLEWLGVIWGDGSTNYHSALISRLTISKDTSKSQVVLTLTNMDPVDTATYYCAKNYFYGSRYGYAMDSWGQGTTVTVSS
VL: DIQMTQSPSSLSASVGDRVTITCRASENIYSSLAWYQQKPGKSPKLLVYNAKTLIEGVPSRFSGSGSGTDYTLTISSLQPEDFATYYCQHHYGTPYTFGGGTKVEIK
notes: also called h1721-0012
B15: h1721-011 (antibody, V domains shown)
VH: EVTLKESGPVLVKPTETLTLTCTVSGFSLSSYGVNWIRQPPGKALEWLGVIWGDGSTNYHSALISRLTISKDTSKSQVVLTLTNMDPVDTATYYCAKNYFYGSRYGYAMDSWGQGTTVTVSS
VL: DIQMTQSPSSLSASVGDRVTITCRASENIYSSLAWYQQKPGKSPKLLVYNAKTLIEGVPSRFSGSGSGTDYTLTISSLQPEDFATYYCQHHYGTPYTFGGGTKVEIK
notes: as for B1
B16: h1721-009 (antibody, V domains shown)
VH: EVTLKESGPVLVKPTETLTLTCTVSGFSLSSYGVNWIRQPPGKALEWLAVIWGDGSTNYHSALISRLTISKDTSKSQVVLTMTNMDPVDTATYYCARNYFYGSRYGYAMDSWGQGTTVTVSS
VL: DIQMTQSPSSLSASVGDRVTITCRASENIYSSLAWYQQKPGKSPKLLVYNAKTLIEGVPSRFSGSGSGTDYTLTISSLQPEDFATYYCQHHYGTPYTFGGGTKVEIK
notes: as for B1
B17: h1721-006 (antibody, V domains shown)
VH: EVTLKESGPVLVKPTETLTLTCTVSGFSLSSYGVNWIRQPPGKALEWLGVIWGDGSTNYHSALISRLTISKDTSKSQVVLTMTNMDPVDTATYYCAKNYFYGSRYGYAMDSWGQGTTVTVSS
VL: DIQMTQSPSSLSASVGDRVTITCRASENIYSSLAWYQQKPGKAPKLLVYNAKTLIEGVPSRFSGSGSGTDYTLTISSLQPEDFATYYCQHHYGTPYTFGGGTKVEIK
notes: as for B1
B18: h1721-004 (antibody, V domains shown)
VH: EVTLKESGPVLVKPTETLTLTCTVSGFSLSSYGVNWVRQPPGKGLEWLGVIWGDGSTNYHSALISRLTISKDTSKSQVVLTLTNMDPVDTATYYCAKNYFYGSRYGYAMDSWGQGTTVTVSS
VL: DIQMTQSPSSLSASVGDRVTITCRASENIYSSLAWYQQKPGKAPKLLIYNAKTLIEGVPSRFSGSGSGTDFTLTISSLQPEDFATYYCQHHYGTPYTFGGGTKVEIK
notes: as for B1
B19: h1721-010 (antibody, V domains shown)
VH: EVTLKESGPVLVKPTETLTLTCTVSGFSLSSYGVNWIRQPPGKALEWLGVIWGDGSTNYHSALISRLTISKDTSKSQVVLTMTNMDPVDTATYYCAKNYFYGSRYGYAMDSWGQGTTVTVSS
VL: DIQMTQSPSSLSASVGDRVTITCRASENIYSSLAWYQQKPGKSPKLLVYNAKTLIEGVPSRFSGSGSGTDYTLTISSLQPEDFATYYCQHHYGTPYTFGGGTKVEIK
notes: as for B1

As usually defined, the Kd is a measure of binding affinity in units of concentration. Higher therefore signals weaker binding.

The target in this assay is T1, CD96 extracellular region with His tag …. Kind of assay: SPR (Biacore), antibody captured, CD96-ECD-His as mobile phase. The source says:
Protein A biosensor chip was used to capture antibodies to be tested, then CD96 antigen was flowed on the surface of the chip, and real time reaction signal was detected by Biacore to obtain the binding and dissociation curve. After the dissociation of each experimental cycle was completed, the biosensor chip was washed and regenerated with a glycine-hydrochloric acid regeneration solution (pH 1.5).
In the case of B1, binding was put at a Kd of 1.31 nM.

B2 registered a dissociation constant Kd of 3.88 nM.

B3 gave a Kd of 3.37 nM.

B4: the equilibrium dissociation constant (Kd) amounted to 4.08 nM.

Take B5: binding was put at a Kd of 3.41 nM. The Kd values of the last two molecules are within 1.5-fold of each other.

With B6, the affinity, expressed as Kd, was 3.82 nM.

In turn, B7 registered a Kd of 3.7 nM.

Turning to B8, binding was put at a Kd of 4.31 nM.

Regarding B9, the Kd was found to be 1.87 nM.

B10 had a Kd of 2.22 nM.

As for B11, binding was put at a Kd of 2.2 nM.

Consider B12, for which binding was put at a Kd of 2.73 nM.

For the molecule B13, the Kd was 2.25 nM. The Kd values of the last two molecules are within 1.5-fold of each other.

B14 displayed a Kd of 2.14 nM.

For B15, the Kd is 2.12 nM.

With B16, the Kd was 2.01 nM.

Molecule B17 gave a Kd of 2.29 nM.

B18 gave a Kd of 2 nM.

In the case of B19, the Kd was 2.04 nM.
